Results as given in US20190022237.

Experiments:
[1] = molecular target: T1, Permanent Lys26 CNP-38 PEG4x10 kDa conjugate 12g (not fully specified)
T1 chain: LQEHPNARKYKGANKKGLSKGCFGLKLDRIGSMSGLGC

[2] = molecular target: T2, Permanent N-terminal CNP-34 PEG 5 kDa conjugate 14e (not fully specified)
T2 chain: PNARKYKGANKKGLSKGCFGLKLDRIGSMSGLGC

[3] = molecular target: T3, Permanent N-terminal CNP-38 PEG 5 kDa conjugate 15e (not fully specified)
T3 chain: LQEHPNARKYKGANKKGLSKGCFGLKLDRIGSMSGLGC

Measured: half life norm. [h] (in vitro NEP digest)

B1: recombinant human Neutral Endopeptidase (NEP) (protein)
chain: YDDGICKSSDCIKSAARLIQNMDATTEPCTDFFKYACGGWLKRNVIPETSSRYGNFDILRDELEVVLKDVLQEPKTEDIVAVQKAKALYRSCINESAIDSRGGEPLLKLLPDIYGWPVATENWEQKYGASWTAEKAIAQLNSKYGKKVLINLFVGTDDKNSVNHVIHIDQPRLGLPSRDYYECTGIYKEACTAYVDFMISVARLIRQEERLPIDENQLALEMNKVMELEKEIANATAKPEDRNDPMLLYNKMTLAQIQNNFSLEINGKPFSWLNFTNEIMSTVNISITNEEDVVVYAPEYLTKLKPILTKYSARDLQNLMSWRFIMDLVSSLSRTYKESRNAFRKALYGTTSETATWRRCANYVNGNMENAVGRLYVEAAFAGESKHVVEDLIAQIREVFIQTLDDLTWMDAETKKRAEEKALAIKERIGYPDDIVSNDNKLNNEYLELNYKEDEYFENIIQNLKFSQSKQLKKLREKVDKDEWISGAAVVNAFYSSGRNQIVFPAGILQPPFFSAQQSNSLNYGGIGMVIGHEITHGFDDNGRNFNKDGDLVDWWTQQSASNFKEQSQCMVYQYGNFSWDLAGGQHLNGINTLGENIADNGGLGQAYRAYQNYIKKNGEEKLLPGLDLNHKQLFFLNFAQVWCGTYRPEYAVNSIKTDVHSPGNFRIIGTLQNSAEFSEAFHCRKNSYMNPEKKCRVW
Almost no proteolysis after 4 days.: all assays above
